Bridge positions count the residues as written; N and C are the ends. Square brackets hold non-standard residues; d marks the D form. Peptide text beside a SMILES is read from it. * marks the point of attachment. NOTA = O=C(O)CN1CCN(CC(=O)O)CCN(CC(=O)*)CC1; Nle = CCCC[C@H](N)C(=O)O; AEEA = NCCOCCOCC(=O)O

A short description of the data set: in vivo. The settings on record: female, BALB/c, mouse, iv, total radioactivity. The procedure:
The animals (BALB/c female mice, n = 6) were administered with carbon tetrachloride (CCl4) formulated in a corn oil solution (20%, 0.5 mg per gram of body weight) into the lower side of the abdomen three times a week for three weeks. The wellbeing of the animals was monitored for 30 min after the injection and once per day afterwards. The development of liver fibrosis was confirmed by post-mortem Sirius Red staining of the PFA liver biopsies.
Healthy mice (n = 4, 19.6 ± 1.0 g) and mice with CCl4 induced liver fibrosis (n = 5, 21.55 ± 1.12 g) were intravenously administered with [^68Ga]Ga-NO2A-[Nle^13]-Col (5.2 ± 2.1 MBq, 0.31 ± 0.09 ug and 6.1 ± 2.1 MBq, 0.35 ± 0.08 ug) and the tracer organ distribution was studied after a 60 min incubation ex vivo (Table S1). The weight of the excised organs of interest (blood, heart, lung, liver, pancreas, spleen, kidney, intestines, muscle, brain) was noted and the radioactivity was measured using an automated gamma counter (2480 Wizard2^TM, PerkinElmer, Waltham, MA, USA) with a correction for dead-time and radioactivity decay.

Take `CCCC[C@@H]1NC(=O)[C@H](C(C)C)NC(=O)[C@H](CCCNC(=N)N)NC(=O)CNC(=O)[C@@H]2CCCN2C(=O)[C@@H](NC(=O)COCCOCCNC(=O)CN2CCN(CC(=O)O)CCN(CC(=O)O)CC2)CSSC[C@@H](C(=O)O)NC(=O)[C@@H]2CCCN2C(=O)CNC(=O)[C@H](CCC(=O)O)NC(=O)[C@H](CC(=O)O)NC(=O)[C@H](CC(=O)O)NC(=O)CNC(=O)[C@H](CC(C)C)NC(=O)[C@H](Cc2c[nH]cn2)NC(=O)[C@H](CC(C)C)NC(=O)CNC(=O)[C@H](Cc2c[nH]cn2)NC1=O` [[^68Ga]Ga-NO2A-[Nle^13]-Col, [^68Ga]Ga-NOTA-PEG2-c[CPGRVNleHGLHLGDDEGPC], metal not drawn] ({NOTA-AEEA}-CPGRV[Nle]HGLHLGDDEGPC-OH; disulfide 1-18): the SUV at 1 h reads like this: (5.2 MBq, SUV lungs (LU)) 0.0679 SUV; (6.1 MBq, SUV kidneys (KI)) 2.12 SUV.

For the origin of these results see publication PMC8537947, “Improved Radiolytic Stability of a ^68Ga-labelled Collagelin Analogue for the Imaging of Fibrosis” (Pharmaceuticals, 2021).
